Like-named read-outs stand apart in the source and are kept apart here.
B1: full length recombinant TG2 (enzyme, UniProt P21980 1-687, looked up)
chain: MAEELVLERCDLELETNGRDHHTADLCREKLVVRRGQPFWLTLHFEGRNYEASVDSLTFSVVTGPAPSQEAGTKARFPLRDAVEEGDWTATVVDQQDCTLSLQLTTPANAPIGLYRLSLEASTGYQGSSFVLGHFILLFNAWCPADAVYLDSEEERQEYVLTQQGFIYQGSAKFIKNIPWNFGQFEDGILDICLILLDVNPKFLKNAGRDCSRRSSPVYVGRVVSGMVNCNDDQGVLLGRWDNNYGDGVSPMSWIGSVDILRRWKNHGCQRVKYGQCWVFAAVACTVLRCLGIPTRVVTNYNSAHDQNSNLLIEYFRNEFGEIQGDKSEMIWNFHCWVESWMTRPDLQPGYEGWQALDPTPQEKSEGTYCCGPVPVRAIKEGDLSTKYDAPFVFAEVNADVVDWIQQDDGSVHKSINRSLIVGLKISTKSVGRDEREDITHTYKYPEGSSEEREAFTRANHLNKLAEKEETGMAMRIRVGQSMNMGSDFDVFAHITNNTAEEYVCRLLLCARTVSYNGILGPECGTKYLLNLNLEPFSEKSVPLCILYEKYRDCLTESNLIKVRALLVEPVINSYLLAERDLYLENPEIKIRILGEPKQKRKLVAEVSLQNPLPVALEGCTFTVEGAGLTEEQKTVEIPDPVEAGEEVKVRMDLLPLHMGLHKLVVNFESDKLKAVKGFRNVIIGPA
B2: recombinant mutant TG2 (C277A) (enzyme)
chain: MAEELVLERCDLELETNGRDHHTADLCREKLVVRRGQPFWLTLHFEGRNYEASVDSLTFSVVTGPAPSQEAGTKARFPLRDAVEEGDWTATVVDQQDCTLSLQLTTPANAPIGLYRLSLEASTGYQGSSFVLGHFILLFNAWCPADAVYLDSEEERQEYVLTQQGFIYQGSAKFIKNIPWNFGQFEDGILDICLILLDVNPKFLKNAGRDCSRRSSPVYVGRVVSGMVNCNDDQGVLLGRWDNNYGDGVSPMSWIGSVDILRRWKNHGCQRVKYGQAWVFAAVACTVLRCLGIPTRVVTNYNSAHDQNSNLLIEYFRNEFGEIQGDKSEMIWNFHCWVESWMTRPDLQPGYEGWQALDPTPQEKSEGTYCCGPVPVRAIKEGDLSTKYDAPFVFAEVNADVVDWIQQDDGSVHKSINRSLIVGLKISTKSVGRDEREDITHTYKYPEGSSEEREAFTRANHLNKLAEKEETGMAMRIRVGQSMNMGSDFDVFAHITNNTAEEYVCRLLLCARTVSYNGILGPECGTKYLLNLNLEPFSEKSVPLCILYEKYRDCLTESNLIKVRALLVEPVINSYLLAERDLYLENPEIKIRILGEPKQKRKLVAEVSLQNPLPVALEGCTFTVEGAGLTEEQKTVEIPDPVEAGEEVKVRMDLLPLHMGLHKLVVNFESDKLKAVKGFRNVIIGPA

Legend:
[1] = molecular target: T1, full-length recombinant Fzd7 (human, UniProt O75084 33-574); experiment: co-IP
[2] = molecular target: T1, full-length recombinant Fzd7; experiment: co-IP; remark: listed apart in the source

| Binder | binding result [1] | binding result [2] |
| --- | --- | --- |
| DAVEEGDWTATVVDQQDCTLSLQLTTPANA [TG2 peptide 81[residues removed]110] | binds |  |
| B1 |  | binds |
| B2 |  | binds |

Source: paper PMC5984683 (Cancer research, 2018)
